Laboratory results taken from PMC11672684 (Cell Reports, 2024).

How the values were obtained:
[1] = molecular target: T1, H1 A/New Caledonia/20/1999 HA (influenza A virus A/New …); assay: ELISA + BLI; details: both partners purified
[2] = molecular target: T1, H1 A/New Caledonia/20/1999 HA; assay: cryo-EM structure; details: both partners purified

B1: 43_S0008 (antibody, V domains shown)
VH: QVQLVQSGAEVKKPGSSVKVSCKASGGTFRTFGISWVRQAPGQGLEWMGWIIPIIGTPNYAQKFQGRVIITADESSNTAYMELNSLKSEDTAVYYCAKEGRALLRYFDWLPLDAFDIWGQGTMVTVSS
VL: DIVLTQTPLSLPVSLGDQASISCRSSQSLVHSDGNTYLHWYLQKPGQSPKLLIYKVSNRFSGVPDRFSGSGSGTDFTLKISRVEAEDLGVYFCSQSTHVPPLTFGAGTKLELK
notes: also called mAb 43_S0008; IGHV1-69 + IGHD3-9 mAb 43_S0008; source: Expi293 cells, purified (protein A)
[1]
  binding result: binds

B2: Fab 43_S0008 (Fab, V domains shown)
VH: B1 VH
VL: B1 VL
notes: also called 43_S0008 Fab
[2]
  binding result: binds
